Measurements taken from paper PMC3050670.

Columns and labels:
[1] = molecular target: HIV-1 CA A14C/E45C/W184A/M185A (HIV-1 (human immunodeficiency virus type 1)); test: SEC
[2] = molecular target: HIV-1 CA A14C/E45C (HIV-1 (human immunodeficiency virus type 1)); test: cross-linking
[3] = molecular target: HIV-1 CA N21C/A22C (HIV-1 (human immunodeficiency virus type 1)); test: cross-linking
[4] = molecular target: HIV-1 CA A42C/T54C (HIV-1 (human immunodeficiency virus type 1)); test: cross-linking

Substance: HIV-1 CA A14C/E45C/W184A/M185A (natural protein)
- stoichiometry N [1]: 6

Substance: HIV-1 CA A14C/E45C (natural protein)
- crosslinking efficiency [2]: > 90%
- stoichiometry N [2]: 6

Substance: HIV-1 CA N21C/A22C (natural protein)
- stoichiometry N [3]: 5

Substance: HIV-1 CA A42C/T54C (natural protein)
- crosslinked 6-mer band, share of the total protein [4]: 30%
- maximal crosslinking [4]: 50%
- stoichiometry N [4]: 6
